Results from the supplement of paper PMC9170038.

What follows are sequences tested on MS2 coat protein (assay: apparent KD of MS2 coat protein, switch ON state; designed switch direction (-1 OFF switch, 1 ON switch): 1; higher = weaker reporter binding). Conditions: FMN input: 0 or 200 uM; Eterna round: R93 (includes R88 designs).
Outline: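 Designed RNA switches were transcribed on-chip from Illumina sequencing clusters. They were then titrated with SNAP-549-labelled MS2 coat protein (twofold steps, 0.7 or 1.5 nM to 3 µM; 0.8–1.5 h to 10–20 min per step) in 100 mM Tris-HCl pH 7.5, 80 mM KCl, 4 mM MgCl2, without or with constant ligand. Apparent KD is the per-design median of normalised cluster binding-curve fits.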

First: AACUACAUUAUGAAGGAUAUCCACAUCUAGACAUGAGGAUCACCCAUGUAUACUUAGAUCAUACAGGAGAAGGUCAAGGGUGAUU [JR_SS002_Sub1208]
Second: AACAGACAUGAGGAUCACCCAUGUAGGAUUAUGGGAGGAUAUACAAAGACGAGAGUCAGAGUAGAAGGCCUAGGAA [salish99-ss1-147]
The “apparent KD of MS2 coat protein” value of the first is 10-fold higher: 172 nM for the first, 16.7 nM for the second.

First: GAGCCGCGGGCACAGGAUAUGCUCGGGCAAACAUGAGGAUCACCCAUGUGCGGCCUAAAUACGACGCAGAAGGGUGCUGGUGUGU [Orxeis]
Second: GAAAAACAUGAGGAUCACCCAUGUAGAAAUAUGGGAGGAUAUUCAAAGACGAAAGUCAAAGAAGAAGGCCUAAAAG [Mat - Same State 1 - Eli mod - 36]
The “apparent KD of MS2 coat protein” value of the first is 1.5-fold higher: 44 nM for the first, 29.1 nM for the second.

First: GAAAAUAAAAGACAGGAUAUCCAAAAGAAAACAUGAGGAUCACCCAUGUAAAGAAAAUAAAAAUGGGAGAAGGGUCAAAUAAAAG [Mat - Same State 2 - JL mod - D52]
Second: AAGCAACAUGAGGAUCACCCAUGUAGCAGGGUCAGAGGAUAUUUGAGCUUGGUAAGGGUUAAAGAAGGUUGAUAAA [Alabeti]
The “apparent KD of MS2 coat protein” value of the first is 2.1-fold lower: 64.8 nM for the first, 138 nM for the second.

“AAGAAACAUGAGGAUCACCCAUGUAAGAUAAACACAGGAUAUGCAAAAGAAACAAAGAAAGCAGAAGGGUGAAGAA [Mat - Same State 1 - Tesla mod - 49]” and “AAAAGACAUGAGGAUCACCCAUGUCGAAAGACAUGAGGAUAUGUACAGACUUCGGUCUGUACAGAAGGCAUGUAAA [SS1 - 1068]” are within 1.5-fold of each other in “apparent KD of MS2 coat protein” value: 17.8 nM for the first, 16.7 nM for the second.

First: AGGAAACAUGAGGAUCACCCAUGUAAAAAUAUGGGAGGAUAUACAAAGACGAAAGUAAGAGUAGAAGGCCUAAAAG [Garnet 16]
Second: AAAAAAUAAAAAAAGGAUAUCUGCAGUACGACAUGAGGAUCACCCAUGUGGUACUGCAGAUAUCAAAAGAAGGAAAAAUAAAAAA [SS2: MS2 52]
The “apparent KD of MS2 coat protein” value of the first is 2.3-fold higher: 31.3 nM for the first, 13.6 nM for the second.

“AUAAAACAUGAGGAUCACCCAUGUGAAAACGUGGGAGGAUAUACGUAGACGAAAGUCGACGUAGAAGGCCUAAAAG [Same State 1.4n.1 (Mat - Mod of Eli - )]” and “GAAAAACAUGAGGAUCACCCAUGUGACAACAUGGGAGGAUAUACAUGGACGAUAGUCAAAGUAGAAGGCCUAAAAG [Garnet 63]” are within 1.5-fold of each other in “apparent KD of MS2 coat protein” value: 119 nM for the first, 142 nM for the second.

Compared with “AAGAAACAUGAGGAUCACCCAUGUGUAAAUAUGGGAGGAUAUACAAGGACGUAAGUCAAGGUAGAAGGCCUAAGAA [Mat - Same State 1 - Meechl mod - D137]”, “AAACAGCACAGGUAGGAUAUGUAGGGUGGUACAUGAGGAUCACCCAUGUAUCCACCCUUCGAAAGGCAGAAGGGCCUGCCGCUGC [Cealaes]” is 1.9-fold lower in “apparent KD of MS2 coat protein” value: 29.4 nM for the first, 15.4 nM for the second.

Compared with “GCUGGGCUACACUAGGAUAUGGGUGUCUAAACAUGAGGAUCACCCAUGUGAUGGCAAAACAAAGCUCAGAAGGAGUCGUAGCCCA [Inrionarus]”, “AUAUAUAAAAGGUAGGAUAUUCUAAAAUAAACAUGAGGAUCACCCAUGUAAAAAAAGAAACUCAUGGAGAAGGACCAUAUAUAUA [ss2 6th modifying Eli's mod of Tesla]” is 2.1-fold higher in “apparent KD of MS2 coat protein” value: 14.7 nM for the first, 31.5 nM for the second.

“AUAAAAGAAGCGAAGGAUAUCCAAAAACCAACAUGAGGAUCACCCAUGUAAAGAAAGAAAAAAUGGGAGAAGGUCGCAAAGAAUA [73%, More Fisker Same State 2, D3, 8]” and “AUAUAUAUAAGGUAGGAUAUCCAAUAAACCACAUGAGGAUCACCCAUGUAAAGAAAGAAAAAAUGGGAGAAGGACCAUAUAUAUA [77%, More Tesla, 6]” are within 1.5-fold of each other in “apparent KD of MS2 coat protein” value: 11.8 nM for the first, 15.4 nM for the second.

First: AAUAAGACUAGCAAGGAUAUCGAAAACGAGACAUGAGGAUCACCCAUGUAACGAGUAUAAGUAUACGAGAAGGUGCAGGGUGAAA [JR_SS002_Sub303]
Second: AAAAUACAUGAGGAUCACCCAUGUGAAAAUAUGGAAGGAUAUACGAAAAAUAAAUAAAACGUAGAAGGUCUAAAAA [SS! 1 MT 3]
The “apparent KD of MS2 coat protein” value of the first is 3.2-fold higher: 75 nM for the first, 23.8 nM for the second.

Compared with “GAUUACAUAGUUCAGGAUAUAUGAAUAGUCACAUGAGGAUCACCCAUGUCCAUUUAUAUGGGCACAUAGAAGGGAGGUAGGGAUC [Mat - Same state - Malcolm Mod - D148]”, “AAAUAAAGGACUGAGGAUAUACCACAUGAAACAUGAGGAUCACCCAUGUUGAAAAACAAAGGGUGGUAGAAGGCAGUCCACAAAC [Same State 2.5c ( so lets mod hyphema)]” is 37-fold lower in “apparent KD of MS2 coat protein” value: 392 nM for the first, 10.7 nM for the second.

First: GAAAAACAUGAGGAUCACCCAUGUGAGAAUAUGGAAGGAUAUACAAAGACGAGAGUCAAAGUAGAAGGUCUAAAAG [Mat - Same State 1 - Eli mod - D21]
Second: AAUAAGACUAGCAAGGAUAUCGAAAACGAGACAUGAGGAUCACCCAUGUAACAAGUAUAAGUAUACGAGAAGGUGCAGGGUGUAA [JR_SS002_Sub302]
The “apparent KD of MS2 coat protein” value of the first is 7.9-fold lower: 22.1 nM for the first, 174 nM for the second.

First: AAAAAAAAAAGACAGGAUAUCCAAAAGAAAACAUGAGGAUCACCCAUGUAAAAGAAAAUAAAAUGGGAGAAGGGUCAAAAUAAAG [Mat - Same State 2 - JL mod - D74]
Second: AGAAUAAAAAGACAGGAUAUCCAAAAGAAAACAUGAGGAUCACCCAUGUAAAGAAAAGAAAAAUGGGAGAAGGGUCAAAAUAAGA [Mat - Same State 2 - JL mod - D59]
The “apparent KD of MS2 coat protein” value of the first is 2.2-fold lower: 9.39 nM for the first, 20.4 nM for the second.

Going from “AGGAGACAUGAGGAUCACCCAUGUGAGAAGAGGCGAGGAUAUCGAAAGAAAGAAGAGAAACGAGAAGGCGCGAGAA [salish99-SS1-017]” to “UGAAAACAUGAGGAUCACCCAUGUAAAAACAUGGGAGGAUAUUGAAAAAAAAAAAAAAAACAAGAAGGCCCAAAAA [crooked]”, the “apparent KD of MS2 coat protein” value rises from 15 nM to 37.7 nM (2.5-fold).

Compared with “GUGGUGUAGAUACAGGAUAUGUUGCUCGUAACAUGAGGAUCACCCAUGUAUCUAUGAGAUUAAAUGCAGAAGGGUGCACACCACG [Maerveen]”, “GGAAGACAUGAGGAUCACCCAUGUGGGAAUAUGGGAGGAUAUACAAAGACGAGAGUCAGAGUAGAAGGCCUAGGAG [salish99-ss1-101]” is 3.9-fold higher in “apparent KD of MS2 coat protein” value: 17.3 nM for the first, 68.2 nM for the second.

“AAAAGACAUGAGGAUCACCCAUGUAAAAACUUGAGAGGAUAUGCUUGAAAAACAUGCUAUGCAGAAGGCUCUAGUC [SS1 - 16]” and “AGGAAACAUGAGGAUCACCCAUGUAAAAAUAUGGGAGGAUAUAGAAAGACGAAAGUCAAACUAGAAGGCCUAAAAG [Garnet 5]” are within 1.5-fold of each other in “apparent KD of MS2 coat protein” value: 21.3 nM for the first, 16.1 nM for the second.

First: AAGAAACAUGAGGAUCACCCAUGUGAGAACAUGGGAGGAUAUACGAAGACGAAAGUCGAAGUAGAAGGCCUAAAAG [Garnet 80]
Second: GCAGGGCUAAACUAGGAUAUGGGUGUCUAGACAUGAGGAUCACCCAUGUGAUGGCAAAACAAAGCUCAGAAGGAGUGGUAGCCCA [Quendi]
The “apparent KD of MS2 coat protein” value of the first is 20-fold higher: 243 nM for the first, 11.9 nM for the second.

Compared with “AAAAAACAUGAGGAUCACCCAUGUAAAAAAAUCGCAGGAUAUAGGGUCGCGAAAGCGACCCUAGAAGGGCGAUCCU [Louisiana 2 - Jieux - Same State 1]”, “AAAAUAAAAUAAAAGGAUAUAAAAAAAUAUACAUGAGGAUCACCCAUGUAUAUAAAAAUAAAAUAAAAGAAGGAAUAAAAAUAAA [SS2 506: MS2 6]” is 5-fold lower in “apparent KD of MS2 coat protein” value: 52 nM for the first, 10.3 nM for the second.

Going from “AAAAAACAUGAGGAUCACCCAUGUAAAAAAAUGGGAGGAUAUACAAAAACGAAAAAAAAAGUAGAAGGCCUGAAAA [same state 8]” to “AAACCACAUGAGGAUCACCCAUGUGUAAAAAAUACAGGAUAUGGAAACACGAAAGUGAAACCAGAAGGGUGGAAAA [77%, Mat - Mod of Eli, 29]”, the “apparent KD of MS2 coat protein” value falls from 57.4 nM to 31.6 nM (1.8-fold).

First: AGGAAACAUGAGGAUCACCCAUGUAAAAGGUGGGUAGGAUAUGCGAAAAGAAAAAGAAAAGCAGAAGGGCCAAGAA [something completely different]
Second: AAACCACAUGAGGAUCACCCAUGUGUAAAAAAUACAGGAUAUGGAAACACGAAAGUGAAACCAGAAGGGUGAAAAA [77%, Mat - Mod of Eli, 30]
The “apparent KD of MS2 coat protein” value of the first is 2.2-fold higher: 41.9 nM for the first, 19 nM for the second.

First: GAAAAACAUGAGGAUCACCCAUGUAAGAUAAACACAGGAUAUGCGAAAAUAAAUAAAUAAGCAGAAGGGUGAAGAA [Mat - Same State 1 - Tesla mod - 74]
Second: AAUAUACAUGAGGAUCACCCAUGUGAAAAUAUGGAAGGAUAUCGUAAAAAAAAAAAAAAACGAGAAGGUCCAAAAA [SS! 1 MT 14]
The “apparent KD of MS2 coat protein” value of the first is 1.6-fold lower: 11.5 nM for the first, 18.7 nM for the second.

For “AAACCACAUGAGGAUCACCCAUGUAAAAUUAUGGGAGGAUAUACUAGAAGAAACAAAAUAGUAGAAGGCCUAAAAA [75%, Ex sub1, 33]”, the “apparent KD of MS2 coat protein” value was 15.9 nM.
